Experiment: soluble fraction after stress (log2 fold change); higher = more stays soluble; pooled small domains, quantitative proteomics
Conditions: stress: 75 degC
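Note: 20 min heating vs room temperature control held 20 min.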

| Sequence | soluble fraction (log2) |
| --- | --- |
| HMKYTVKSPLPGVIMSVLVKVGDTVKASDTVISLEAMKMENAIHAGRDGKVTSIDVNVGDSVLEGHTLVTI | -0.594 |
| HMLAAGTPLTVVTESSNLNIRQEPSTEAAVVGKAAKGEIVTLVEQTSGEWWKVSTKDGEEGYAYSRYL | 0.678 |
| HMLAAGTSLTVDTESSNLNIRQEPSTEGVILGKAAKGEVVTLVEQSSDEWWKIKTKDGEEGYAYARYLR | 0.175 |
| HMLADRANMAPAALRQIMTAIDGGNVTPKQIESATGMAHATVARALRKMLDDGLIANDGKGRYTVLT | -0.212 |
| HMLADTNIHTIALKHRLANEVVEQVRPFLPETATIRAYDNMLILKSDRATLANVEQLIKKLDT | 0.0428 |
| HMLALVREQIERNVSNPTDEDIRKIRHDVMEVITRAGADAATVDIAIEIDSQKNILRAIATGATEL | -0.0966 |
| HMLAMHVVESVGGAEQFTKLQNFAKTQNADYQKMWNDTMNSGNVLAIKTMLSGIQSDMIAVQ | -0.276 |
| HMLAQDVIVKQDGGTILSKVLEIGTQEIAYKKWNSQDGPVYKIAKDQVLSVNYQNGEVDRFA | -0.00975 |
| HMLAQISDEGAIGAVVARVLDAHPNEVARYHAGEEKVAKFLMGAAMRELRGKGDPAVVQRLLSEGLDARRV | -0.00832 |
| HMLARPTANELVKEMQRRAKEQRTELPPDAARDLLERSGQDQFLLGNEVDKLAALSGYTTITREMVAQAGT | 0.247 |
| HMLAVPADFAEKLQSLRSQLASDDLDASDAFGRLQPFIKALYPAQLEALRKAVDDFDFVEATRLIDQLPQ | -0.376 |
| HMLAYQRTYEKILEDLRNDVYPVNSLLPPEPKLEEIYHVSRTTVRRAIAQLADEGYVKVKQGYGTVVLKN | -2.02 |
| HMLDEPPVSQTLTTYDREHMALYLRLLDSARDGADWREAVQILFGLDPTRDPLRSRHVHDTHLARARWM | -0.0384 |
| HMLDFGQEDSEAVSEIILVLGRYWMDFSHKKYPEAEGSALRHKGISHIFTVLKPYLTSATAQLIEQRLQQ | -0.0669 |
| HMLDIQKKGENIAYIEGAGDVIPESLKQIGYHVVTIAPKDINAETLSRFDAVVVGIRAYNTVEDL | 0.0708 |
| HMLDKIRTYIDNSFTGVNETKKVKELKDELFENLKEKYNDQIQDGKTEQEAYNSVISGIGDLSELIESVK | ≥ 1.04 |
| HMLDKKKHLEQGRKIIEDQLAKYKIQPSFDTLKKLSAYYGLNNKEQLYAQVGMGFLELENLDEILQ | 0.307 |
| HMLDLPVRTINGRQYYYYEVRNRETVYGLSKRLGVTREEIVRYNPSMADGLKRGAILYFPVDEFSDRI | -2.84 |
| HMLDLSDFEVVRDLYLSEQIWNVGDLIIARSKKDDTYKAWEIIRKGTNYVTGIDESHKVEKIWLHDILI | -1.15 |
| HMLDSPHDDLNRKIVQMLQNDGRLPYKDIAEVLSVSEGTVRNRVQRMRDAGMLNIVALIDPMAI | -0.0197 |
| HMLDTPLTARELDVLYLMRQRMSAKEIAKQLGIATMTVNRHAANLYRKLGVNTRWDAVYRAEEVGILPP | -1.45 |
| HMLDVNLIFSRPGFSLSAAFTLHAGGITVLRGDSGSGKTTLADLLSGAIAPQKGRILSDGDIWFDAASGIN | 0.108 |
| HMLDYITLSPQELGKLLSAGNGDAAMVYLYMKATGDVTLKQAETQLGMTNQNLAWAESLLKRLGLMD | -1.9 |
| HMLDYKSALQELLQAQRRSRPRYEVISTEGPDHERVFEVAVWLDNEELGRGKGRSKREAEHQAAQAALTQL | -0.115 |
| HMLDYQLQVFKDTLEANRKHRGQKIVFIHGKGEGVLRRALIHALNYQYKKFTYQDASFREYGYGATQVTI | -0.312 |
| HMLEEIDYPEEQLQLLFAWSRDHVQSTPPGLPVVDDHVWHILVRGYGATDQRTEAFALLASYAGFP | 0.135 |
| HMLEIDPPVDEISVSRKAFYEAAGYKVNPYTHIPPRYRKEFEEHSFVVMSWPRELPEETYRKFDRYLRDV | 0.0575 |
| HMLEIRGFTVLLSDRGIVGIIEEIIQNPGQDLLRILSPEKREILVPLHSDLITGINKKKKTITMNLPDGL | -1.87 |

| Sequence | soluble fraction (log2) |
| --- | --- |
| HMLELTGEEEFVIRTLTRQGDLHINALVVETDIPINRMISLLFELEMKGVVKALVGGVYHLLG | -2.45 |
| HMLELTVSDKMARLMAWRNRRRVNLSDQELHRIAAAPKQSPESILKMLPGFLQDSVPEIWAELTGGRP | -1.24 |
| HMLENSLDHIEGIGPKTKDTLLTYFKSVSKIKSANPSILAELIGAAKTKILLAAFEKEKTTS | -0.7 |
| HMLENYEGFKQKILKLTGIDLSSYKERQMRRRIDSLIHRNNYDDYDEYFKALTQNSNLYDEFINYLTI | -0.823 |
| HMLEQEDMYGYQMIETLRERSEHSFDLKAGTLYPLLHALEQKGLITARDEASAAGRPRRYYHLTDAG | -0.354 |
| HMLERPLFTPEQYGRFRGKEARIRLSNPVEGRKTLTGSIVEATEERIVVFVEEEEREVTVPFQWIKSGNL | -0.544 |
| HMLESVMHSRIAEIISREGTAPAHMSMQEKIRVVHKLDADGILMMKGAVAEIADQLSVSVPTIYRYLNKPQ | -2.49 |
| HMLETILQIGKDGVGENLVKQVNDALEARELIKGRVLDNNLELDARTAAQILAKATRSEVVQVIGTKFV | -0.00194 |
| HMLEVTQTDVKMYTTSGTPVYAAPDLNSAIVVYLERFVNVTVTGITDNGFYRVNLNGDYYIPGPYLISSV | -3.92 |
| HMLEYIEPRTAVQIHGIKAKPELNGKRGMVMGYAPERMRYRVRIDVGEGTGGKESEEVYLKPENVIAVK | 0.0615 |
| HMLFKGDTREENVILEFLSKNGTTSSDAIIKQTGLSASEFNQAITMLELKGLALNNGGEKWSL | 0.304 |
| HMLGDAVLRQVLETIPEDPAVDYLELRRNTGMTEADLDRVLADLENLGVINKKRTVEQVLYWRT | -0.651 |
| HMLGDAWSMLILRDAHSGFSRFDQFRKSLGIAPTMLTKRLSVLVDEGLLEKRQYSEHPPREEYVLTQAGQD | -0.0775 |
| HMLGERIRTLRKEIGMSVTELARRVKTSPSHISEIERGEKMPSLNLLVKIAKELKTSIDYLTGLVG | -0.498 |
| HMLGNIERALEMLQEVAATMDPVDIRLLLSMAQVESVRGNTEAAVKLIDEALVIDPGNERIEQIRLRVL | -0.482 |
| HMLGRPDMSPIPEGSRNNDLHAWGFGRLANHPDNKRQIEADFFERGRISGLGDAEIRASWNSILRQLGHQ | 0.0693 |
| HMLGSVRTIRQVLDDGRLIVADGGGNPSVIRRSGALAHETFANGQRVIVDPSGRLALELLPD | 0.171 |
| HMLGVLEYYNNGQKKSERTFKGGMQIYTEWYENGQMKAEERKWIDQLGSLKFLNLLSTEWDENGNEISRME | -1.55 |
| HMLGYGEQEREAQKYLEMHTAFQADPSLQKMYLPENQYALISKVMEMTGIKNVKSYLTPPNEL | -0.193 |
| HMLHVRSALMSELDGIEGIGEKRKRLLFDAFITRDAIAAATLEQLMAVKGMNRPSAEAVHKHFHG | -0.985 |
| HMLIELKIPSEWAGKSLHTLNLRQNYNVNVIGFRDEKSGKLNTHFDPSKKLPDEGIILVVADNRTLEKF | -0.7 |
| HMLIIDLPDFTNKKLSELQQWADANQITLKIVEKDVSSKPYDTILEQTPAKNKYEKIVKGSTMTVTVNIK | -0.965 |
| HMLINFPNKLKRLRLANNLTQQELANILETTKQAVSSYESGKSTPSLNSLIKLSEHFNISLDSLVFD | -0.038 |
| HMLINIKTNSAVNVRSGPGMGFEVVNTYPSGYILQAKEMQKDGGDNVWYKVKDGWLSANYTIDI | -0.787 |
| HMLINPLDILRNFNLSLYDDSRDSASNKEIDEIFESIKTNNSHIFSTLKAYRIPLPIASLIIKKIIKITLE | -0.891 |
| HMLISDENMLRDLVQAVLDENPKSVSDYKSGKTKAFGFLVGQTMKAVKGQADPMLVNKILTELLN | 0.236 |
| HMLISYRVDALANEAGLSVDTIRYYQKLGILDPPKRTGRHSEYSPDHLERLIEIRRLADAGLTLSQISEI | -2.55 |
